Bridge positions count the residues as written; N and C are the ends. Square brackets hold non-standard residues; d marks the D form. Primed or numbered codes have the meaning given here. Azk = residue with azidated side chain, clicked to Pra; Pra′ = residue with alkynyl side chain, clicked to Azk; S5 = C=CCCC[C@](C)(N)C(=O)O
B1: compound 84 (peptide)
peptide: FNDCRDIIQRMHLRQYELX
HELM: PEPTIDE1{[ac].F.N.D.C.R.D.I.I.Q.R.M.H.L.R.Q.Y.E.L.[Cha]}$$$$V2.0
SMILES: CC[C@H](C)[C@H](NC(=O)[C@H](CC(=O)O)NC(=O)[C@H](CCCNC(=N)N)NC(=O)[C@H](CS)NC(=O)[C@H](CC(=O)O)NC(=O)[C@H](CC(N)=O)NC(=O)[C@H](Cc1ccccc1)NC(C)=O)C(=O)N[C@H](C(=O)N[C@@H](CCC(N)=O)C(=O)N[C@@H](CCCNC(=N)N)C(=O)N[C@@H](CCSC)C(=O)N[C@@H](Cc1c[nH]cn1)C(=O)N[C@@H](CC(C)C)C(=O)N[C@@H](CCCNC(=N)N)C(=O)N[C@@H](CCC(N)=O)C(=O)N[C@@H](Cc1ccc(O)cc1)C(=O)N[C@@H](CCC(=O)O)C(=O)N[C@@H](CC(C)C)C(=O)N[C@@H](CC1CCCCC1)C(=O)O)[C@@H](C)CC
B2: compound 3 (peptide)
peptide: Ac-FNDCRDEIQRKHLRQYELL-OH
B3: compound 5 (peptide)
peptide: Ac-FNDCRDEIQRKHLRQYELL-OH
modifications: lactam 7-11
B4: compound 4 (peptide)
peptide: FNDCRDEIQRKHLRQYELL
HELM: PEPTIDE1{F.N.D.C.R.D.E.I.Q.R.K.H.L.R.Q.Y.E.L.L}$PEPTIDE1,PEPTIDE1,7:R3-11:R3$$$V2.0
SMILES: CC[C@H](C)[C@@H]1NC(=O)[C@@H](NC(=O)[C@H](CC(=O)O)NC(=O)[C@H](CCCNC(=N)N)NC(=O)[C@H](CS)NC(=O)[C@H](CC(=O)O)NC(=O)[C@H](CC(N)=O)NC(=O)[C@@H](N)Cc2ccccc2)CCC(=O)NCCCC[C@@H](C(=O)N[C@@H](Cc2c[nH]cn2)C(=O)N[C@@H](CC(C)C)C(=O)N[C@@H](CCCNC(=N)N)C(=O)N[C@@H](CCC(N)=O)C(=O)N[C@@H](Cc2ccc(O)cc2)C(=O)N[C@@H](CCC(=O)O)C(=O)N[C@@H](CC(C)C)C(=O)N[C@@H](CC(C)C)C(=O)O)NC(=O)[C@H](CCCNC(=N)N)NC(=O)[C@H](CCC(N)=O)NC1=O
B5: compound 72 (peptide)
peptide: Ac-NARRIFNDCRDIIQRMHLRQYELL-OH
B6: compound 67 (peptide)
peptide: RDIIQRMHLRQYEXL
HELM: PEPTIDE1{[ac].R.D.I.I.Q.R.M.H.L.R.Q.Y.E.[Cha].L}$$$$V2.0
SMILES: CC[C@H](C)[C@H](NC(=O)[C@H](CC(=O)O)NC(=O)[C@H](CCCNC(=N)N)NC(C)=O)C(=O)N[C@H](C(=O)N[C@@H](CCC(N)=O)C(=O)N[C@@H](CCCNC(=N)N)C(=O)N[C@@H](CCSC)C(=O)N[C@@H](Cc1c[nH]cn1)C(=O)N[C@@H](CC(C)C)C(=O)N[C@@H](CCCNC(=N)N)C(=O)N[C@@H](CCC(N)=O)C(=O)N[C@@H](Cc1ccc(O)cc1)C(=O)N[C@@H](CCC(=O)O)C(=O)N[C@@H](CC1CCCCC1)C(=O)N[C@@H](CC(C)C)C(=O)O)[C@@H](C)CC
B7: compound 66 (peptide)
peptide: QRMHLRQYEXL
HELM: PEPTIDE1{[ac].Q.R.M.H.L.R.Q.Y.E.[Cha].L}$$$$V2.0
SMILES: CSCC[C@H](NC(=O)[C@H](CCCNC(=N)N)NC(=O)[C@H](CCC(N)=O)NC(C)=O)C(=O)N[C@@H](Cc1c[nH]cn1)C(=O)N[C@@H](CC(C)C)C(=O)N[C@@H](CCCNC(=N)N)C(=O)N[C@@H](CCC(N)=O)C(=O)N[C@@H](Cc1ccc(O)cc1)C(=O)N[C@@H](CCC(=O)O)C(=O)N[C@@H](CC1CCCCC1)C(=O)N[C@@H](CC(C)C)C(=O)O
B8: compound 73 (peptide)
peptide: Ac-RRIFNDCRDIIQRMHLRQYELL-OH
B9: compound 25 (peptide)
peptide: Ac-FN[S5]CRD[S5]IQRMHLRQYELL-OH
modifications: bridges not given here
B10: compound 23 (peptide)
peptide: Ac-FNECRDKIQRMHLRQYELL-OH
B11: compound 24 (peptide)
peptide: FNECRDKIQRMHLRQYELL
HELM: PEPTIDE1{[ac].F.N.E.C.R.D.K.I.Q.R.M.H.L.R.Q.Y.E.L.L}$PEPTIDE1,PEPTIDE1,4:R3-8:R3$$$V2.0
SMILES: CC[C@H](C)[C@H](NC(=O)[C@@H]1CCCCNC(=O)CC[C@H](NC(=O)[C@H](CC(N)=O)NC(=O)[C@H](Cc2ccccc2)NC(C)=O)C(=O)N[C@@H](CS)C(=O)N[C@@H](CCCNC(=N)N)C(=O)N[C@@H](CC(=O)O)C(=O)N1)C(=O)N[C@@H](CCC(N)=O)C(=O)N[C@@H](CCCNC(=N)N)C(=O)N[C@@H](CCSC)C(=O)N[C@@H](Cc1c[nH]cn1)C(=O)N[C@@H](CC(C)C)C(=O)N[C@@H](CCCNC(=N)N)C(=O)N[C@@H](CCC(N)=O)C(=O)N[C@@H](Cc1ccc(O)cc1)C(=O)N[C@@H](CCC(=O)O)C(=O)N[C@@H](CC(C)C)C(=O)N[C@@H](CC(C)C)C(=O)O
B12: compound 26 (peptide)
peptide: Ac-FN[S5]CRD[S5]IQRMHLRQYELL-OH
modifications: staple 3-7
SMILES: CC[C@H](C)[C@H](NC(=O)[C@]1(C)CCCC=CCCC[C@](C)(NC(=O)[C@H](CC(N)=O)NC(=O)[C@H](Cc2ccccc2)NC(C)=O)C(=O)N[C@@H](CS)C(=O)N[C@@H](CCCNC(=N)N)C(=O)N[C@@H](CC(=O)O)C(=O)N1)C(=O)N[C@@H](CCC(N)=O)C(=O)N[C@@H](CCCNC(=N)N)C(=O)N[C@@H](CCSC)C(=O)N[C@@H](Cc1c[nH]cn1)C(=O)N[C@@H](CC(C)C)C(=O)N[C@@H](CCCNC(=N)N)C(=O)N[C@@H](CCC(N)=O)C(=O)N[C@@H](Cc1ccc(O)cc1)C(=O)N[C@@H](CCC(=O)O)C(=O)N[C@@H](CC(C)C)C(=O)N[C@@H](CC(C)C)C(=O)O
B13: compound 8 (peptide)
peptide: Ac-FNDCRD[S5]IQR[S5]HLRQYELL-OH
modifications: staple 7-11
B14: compound 6 (peptide)
peptide: Ac-FNDCRD[S5]IQR[S5]HLRQYELL-OH
modifications: bridges not given here
B15: compound 7 (peptide)
peptide: H-FNDCRD[S5]IQR[S5]HLRQYELL-OH
modifications: staple 7-11
SMILES: CC[C@H](C)[C@@H]1NC(=O)[C@@](C)(NC(=O)[C@H](CC(=O)O)NC(=O)[C@H](CCCNC(=N)N)NC(=O)[C@H](CS)NC(=O)[C@H](CC(=O)O)NC(=O)[C@H](CC(N)=O)NC(=O)[C@@H](N)Cc2ccccc2)CCCC=CCCC[C@@](C)(C(=O)N[C@@H](Cc2c[nH]cn2)C(=O)N[C@@H](CC(C)C)C(=O)N[C@@H](CCCNC(=N)N)C(=O)N[C@@H](CCC(N)=O)C(=O)N[C@@H](Cc2ccc(O)cc2)C(=O)N[C@@H](CCC(=O)O)C(=O)N[C@@H](CC(C)C)C(=O)N[C@@H](CC(C)C)C(=O)O)NC(=O)[C@H](CCCNC(=N)N)NC(=O)[C@H](CCC(N)=O)NC1=O
B16: compound 10 (peptide)
peptide: H-FNDCRD[Pra′]IQR[Azk]HLRQYELL-OH
modifications: triazole 7-11
B17: compound 9 (peptide)
peptide: FNDCRDXIQRXHLRQYELL
HELM: PEPTIDE1{[ac].F.N.D.C.R.D.[C#CC[C@H](N[*:1])C(=O)[*:2]].I.Q.R.[[N-]=[N+]=NCCCC[C@H](N[*:1])C(=O)[*:2]].H.L.R.Q.Y.E.L.L}$$$$V2.0
SMILES: C#CC[C@H](NC(=O)[C@H](CC(=O)O)NC(=O)[C@H](CCCNC(=N)N)NC(=O)[C@H](CS)NC(=O)[C@H](CC(=O)O)NC(=O)[C@H](CC(N)=O)NC(=O)[C@H](Cc1ccccc1)NC(C)=O)C(=O)N[C@H](C(=O)N[C@@H](CCC(N)=O)C(=O)N[C@@H](CCCNC(=N)N)C(=O)N[C@@H](CCCCN=[N+]=[N-])C(=O)N[C@@H](Cc1c[nH]cn1)C(=O)N[C@@H](CC(C)C)C(=O)N[C@@H](CCCNC(=N)N)C(=O)N[C@@H](CCC(N)=O)C(=O)N[C@@H](Cc1ccc(O)cc1)C(=O)N[C@@H](CCC(=O)O)C(=O)N[C@@H](CC(C)C)C(=O)N[C@@H](CC(C)C)C(=O)O)[C@@H](C)CC

Biological target: T1, human β2AR (human, UniProt P07550 2-365)
Assay: cell-based or functional assay

Row | Binder | IC50 (nM) of isoproterenol, [3H]-DHA RLA, peptidomimetic present [nM] | Shift
1 | B1 | 66.2 | 12

Biological target: T1, human β2AR
Assay: cell-based or functional assay
Remark: another data set of the same source

Row | Binder | IC50 (nM) of isoproterenol, [3H]-DHA RLA, peptidomimetic present [nM] | Shift
2 | B2 | 408 | 2
3 | B3 | 197 | 4
4 | B4 | 202 | 4

Biological target: T1, human β2AR
Assay: cell-based or functional assay
Remark: another data set of the same source

Row | Binder | Shift (averaged)
5 | B5 | 47
6 | B6 | 30
7 | B7 | 2
8 | B1 | 12
9 | B8 | 19

Biological target: T1, human β2AR
Assay: cell-based or functional assay
Remark: another data set of the same source

Row | Binder | IC50 (nM) of isoproterenol, [3H]-DHA RLA, peptidomimetic present [nM] | Shift
10 | B6 | 45.4 | 17
11 | B7 | 551 | 1

Biological target: T1, human β2AR
Assay: cell-based or functional assay
Remark: another data set of the same source

Row | Binder | IC50 (nM) of isoproterenol, [3H]-DHA RLA, peptidomimetic present [nM] | Shift
12 | B5 | 22.2 | 46
13 | B8 | 52.6 | 19

Biological target: T1, human β2AR
Assay: cell-based or functional assay
Remark: another data set of the same source

Row | Binder | IC50 (nM) of isoproterenol, [3H]-DHA RLA, peptidomimetic present [nM] | Shift
14 | B9 | 485 | 1
15 | B10 | 270 | –
16 | B11 | 97.3 | 7
17 | B12 | 305 | 2

Biological target: T1, human β2AR
Assay: cell-based or functional assay
Remark: another data set of the same source

Row | Binder | IC50 (nM) of isoproterenol, [3H]-DHA RLA, peptidomimetic present [nM] | Shift
18 | B13 | 373 | 2
19 | B14 | 104 | 8
20 | B15 | 417 | 2

Biological target: T1, human β2AR
Assay: cell-based or functional assay
Remark: another data set of the same source

Row | Binder | IC50 (nM) of isoproterenol, [3H]-DHA RLA, peptidomimetic present [nM] | Shift
21 | B16 | 122 | 7
22 | B17 | 211 | 4

Biological target: T1, human β2AR
Assay: cell-based or functional assay
Remark: another data set of the same source

Row | Binder | Shift (averaged)
23 | B9 | 2
24 | B13 | 3
25 | B10 | 3
26 | B14 | 9
27 | B16 | 7
28 | B17 | 4
29 | B15 | 2
30 | B11 | 7
31 | B2 | 2
32 | B12 | 2
33 | B3 | 4
34 | B4 | 4
